To fix the notation:
B1: GLI1_(1-232), wild type, 35S-radiolabeled [modified: [35S]-methionine label; [35S]-methionine label] [human] / GST-SUFU (fusion of GST to full-length human SUFU) [human] (parent complex)
chain 1: MFNSMTPPPISSYGEPCCLRPLPSQGAPSVGTEGLSGPPFCHQANLMSGPHSYGPARETNSCTEGPLFSSPRSAVKLTKKRALSISPLSDASLDLQTVIRTSPSSLVAFINSRCTSPGGSYGHLSIGTMSPSLGFPAQMNHQKGPSPSFGVQPCGPHDSARGGMIPHPQSRGPFPTCQLKSELDMLVGKCREEPLEGDMSSPNSTGIQDPLLGMLDGREDLEREEKREPESV
chain 2: MAELRPSGAPGPTAPPAPGPTAPPAFASLFPPGLHAIYGECRRLYPDQPNPLQVTAIVKYWLGGPDPLDYVSMYRNVGSPSANIPEHWHYISFGLSDLYGDNRVHEFTGTDGPSGFGFELTFRLKRETGESAPPTWPAELMQGLARYVFQSENTFCSGDHVSWHSPLDNSESRIQHMLLTEDPQMQPVQTPFGVVTFLQIVGVCTEELHSAQQWNGQGILELLRTVPIAGGPWLITDMRRGETIFEIDPHLQERVDKGIETDGSNLSGVSAKCAWDDLSRPPEDDEDSRSICIGTQPRRLSGKDTEQIRETLRRGLEINSKPVLPPINPQRQNGLAHDRAPSRKDSLESDSSTAIIPHELIRTRQLESVHLKFNQESGALIPLCLRGRLLHGRHFTYKSITGDMAITFVSTGVEGAFATEEHPYAAHGPWLQILLTEEFVEKMLEDLEDLTSPEEFKLPKEYSWPEKKLKVSILPDVVFDSPLH

In this assay the parent is B1. The assay is described as follows: GST-SUFU pull-down binding assay with 35S-radiolabeled in vitro-translated GLI1; parent: 8 nM.
Regarding chain 1 S130E, the Kd turned out to be 0.021 µM. In the case of chain 1 S102E, the Kd was found to be 0.067 µM.

As usually defined, the Kd is the concentration at which binding is half-saturated.

The values above are taken from paper PMC9279676, “ERK2 MAP kinase regulates SUFU binding by multisite phosphorylation of GLI1” (Life Science Alliance, 2022).
